Our source for the IC50 values is patent publication US20230279079A1 (published 2023).

For the test, the target named is RBD-VLP (SARS-CoV-2, UniProt P0DTC2 340-538).

B1: FI-1C (antibody, V domains shown)
VH: EVQLVESGGGLVKPGGSLRLSCAASGFTFSDYYMSWIRQAPGKGLEWVSYISSSGSTIYYADSVKGRFTISRDNAKNSLYLQMNSLRAEDTAVYYCARRSNRFLIAFDIWGQGTMVTVSS
VL: QSALTQPASVSGSPGQTITISCTGTSSDVGGYNYVSWYQQHPGKAPKLMIYEVSNRPSGVSNRFSGSKSGNTASLTISGLQAEDEADYYCSSYTSSSTLVVFGGGTKLTVP
Take B1: the IC50 amounted to 23 nM.

B2: FI-3A (antibody, V domains shown)
VH: EVQLLESGGGLIQPGGSLRLSCAASGFTVSSNYMSWVRQAPGKGLEWVSVIYSGGSTYYADSVKGRFTISRDNSKNTLYLQMNSLRAEDTAVYYCARDHVRPGMNIWGQGTMVTVSS
VL: not shown
For the molecule B2, the IC50 was found to be 3 nM.

In general, IC50 refers to the concentration that inhibits the measured activity by half.
